This note sets out measurements from patent US9271932B2, “Fusogenic properties of saposin C and related proteins and peptides for application to transmembrane drug delivery systems” (CHILDREN'S HOSPITAL MEDICAL CENTER, priority 2006, dated 2016).

Residue numbers refer to the chain shown, from its start. Names may count otherwise. Some results are limits rather than exact numbers.

Series [1] is described as follows: Saposin C-PS(18:1,1) liposome complex: stability and mechanism of fusion. In kind it is biochemical. How it is done: Protein conformational changes are thought to play a role in protein-mediated membrane fusion. This fusion mechanism is evaluated using saposin C-dependent membrane fusion. First, saposin C—PS(18:1,1) liposome complexes are formed. In this saposin C-anchored membrane, protein conformation is altered. This complex is stable from pH 3 to 10, and in low concentrations of SDS solution.
Since the Trp in saposin C(0W) is embedded inside of lipid bilayer, the change of its signal is indicative of that the surrounding environment of Trp has been changed. After about 20 to 30 ms, Trp fluorescence signal decreases to the starting level. […] Shortly after this, the signal drops back to starting level signaling on end of the fusion process. […] Therefore, a conformational change of saposin C upon lipid binding is […] for its fusogenic activity.

Series [2] has as its system cultured mouse cortical and hippocampal neurons. The experiment in a line: Transport of saposin C into cultured neurons by DOPS liposomes. In kind it is cell-based. To be noted: facilitated by complexes with DOPS liposomes. Here is the method:
Saposin C can be transported into endosomal and lysosomal compartments using saposin-C liposomes containing long-chain anionic phospholipids. This method can be used for the treatment of neurological diseases including, for example, those in which MVB accumulation contributes to pathology and progression of disease.
Primary Cortical Neuron Cultures—Cortical neurons are cultured in serum-free Neuroblasal medium with B27 supplements as described by Whitmarsh et al.^44 Take out E16 mouse embryos, cut the head and place them into ice-cold Ca/Mg-free Hank Balance Salt Solution (HBSS) with papain (1 mg/ml). The brain is dissected out and place scalpel along the dorsal midline between the two cerebral hemispheres but slightly deviate towards to the side as it cut. This will give a clean cerebral cortex. […]
Immunofluorescence staining is done as described with minor modification.^15 Cultured cells (1×10^5) in a dish with coverslips are washed with PBS and fixed with 2% paraformaldehyde for 10 min at room temperature. After treating with 0.1% Triton X-100 in PBS, the samples are incubated with each respective primary antiserum (for 2 h) and fluorescence-conjugated secondary antibody (for 1 h) at 37° C. […] Antifade is added on the section to prevent the fluorescence quenching. Fluorescence signals are detected by a confocal microscopy (LSM510, Zeiss) or a fluorescence microscopy (Zeiss Axioskop).

Series [3] has as its target T1, acid β-glucosidase (Homo sapiens, UniProt P04062).
T1 sequence (P04062 40-536): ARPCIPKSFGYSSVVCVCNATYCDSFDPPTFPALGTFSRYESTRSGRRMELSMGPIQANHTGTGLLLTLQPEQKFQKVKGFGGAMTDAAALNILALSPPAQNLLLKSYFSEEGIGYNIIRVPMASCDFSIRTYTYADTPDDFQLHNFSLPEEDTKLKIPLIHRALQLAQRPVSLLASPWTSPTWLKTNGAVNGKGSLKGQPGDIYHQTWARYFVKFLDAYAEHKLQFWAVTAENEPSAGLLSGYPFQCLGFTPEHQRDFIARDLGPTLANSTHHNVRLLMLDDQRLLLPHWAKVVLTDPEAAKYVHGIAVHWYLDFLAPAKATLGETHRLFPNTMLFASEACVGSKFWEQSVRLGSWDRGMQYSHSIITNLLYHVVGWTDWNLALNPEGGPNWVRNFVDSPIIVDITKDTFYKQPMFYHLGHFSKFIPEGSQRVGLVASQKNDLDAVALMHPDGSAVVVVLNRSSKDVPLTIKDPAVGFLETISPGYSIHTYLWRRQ
The experiment in a line: Acid β-glucosidase activation in liposomal reconstitution system. In kind it is biochemical. Here is the method: Functional saposins were overexpressed in BL21(DE3) cells using a pET 21a series vector. Following IPTG induction at 37° C. or 30° C., large amounts of saposins containing His-Tag were found in the soluble fraction of the disrupted cells. These were conveniently purified to electrophoretic homogeneity on nickel-loaded columns. Alternatively, saposins without His-Tag were generated by introducing a stop codon after protein coding region, and then purified using immuno-affinity columns with T7-taq monoclonal antibody. […] Circular dichroism spectra, light scattering, and ES-MS analyses were used to evaluate the physical properties of the purified saposins, such as aggregation status and molecular weight. Trp-saposins without His-Tag were also generated for necessary control experiments. The functional integrity of recombinant saposin C is determined using delipidated and homogenous acid β-glucosidase in a liposomal reconstitution system and in neuritogenic assays. Recombinant saposin B function is determined using a sulfatide binding assay.

The nature of series [4]: Vesicle size change determination (N4 plus submicron particle sizer). In kind it is biochemical. An excerpt:
The amino acid residues 51-67 are necessary, but not sufficient, for its optimal enzymatic activation function. The disulfide structure and conformational alteration of saposin C upon lipid binding are also required for this activity. Three approaches are used for this study: (1) stopped-flow monitoring reduction of self-quenching resulting from fusion of fluorescence probe-containing vesicle with non-fluorescent vesicle induced by saposin C; (2) monitoring the lipid vesicle size changes upon addition of saposin C to vesicles, the size distribution as determined using N4 plus submicron particle sizer (Coulter Co.); (3) monitoring intrinsic fluorescence of Trp-saposin C change during liposomal fusion.
[…] is used for vesicle fusion analysis, since the size of fused vesicles is bigger than those of non-fused. N4 plus submicron particle size is used to estimate particle sizes in the range of 3 nm to 3 μm since most liposomes fit in this range. Sonication conditions with a cup sonicator give mono-dispersed BPS-liposomes with ˜200 nm in size. Upon addition of saposin C, these vesicles change to a larger size up to 2-3 μm. The size increase is related to vesicles fusion as shown by the above dequenching experiments.
Saposin C promotes the size changes at ˜50 nM concentration. To define the regions responsible for this fusion property, peptides containing only 50% of the NH2-terminal or 50% of the COOH-terminal halves in saposin C are tested. Both peptides show fusion activity.

Series [5] is described as follows: Fluorescence stopped-flow of saposin C binding to PS vesicles. To be noted: PS(18:1,1) or BPS vesicles. An excerpt: To investigate temporal and spatial interactions of saposins and liposomal membrane, fluorescence stopped-flow and quenching approaches are used with Trp as the intrinsic fluorescence probe of the saposins. These experiments allow identification of regional interactions between saposins and lipid bilayers, and also the kinetics of their binding.
This binding induces change is lipid-concentration dependent and requires at least one unsaturated fatty acid chain. To evaluate the kinetics of this interaction, stopped-flow experiments are conducted the change in fluorescence during saposin C/liposome complex formation is monitored. When saposin C(0W) is mixed with PS(18:1,1) or BPS vesicles, fluorescence of Trp is increased, but the time course of this change is undetectable due to limitation of the machine's capability. Apparently, the interaction of saposin C and unsaturated PS containing membranes occurs within at least 10 ms.

Series [6] in a line: R18 dequenching stopped-flow liposomal fusion assay. Format: biochemical. To be noted: unsaturated PS(18:1,1) vesicles, compared with Ca^2+. An excerpt:
Fluorescence probes have been widely used to determine membrane fusion, such as fluorescence dequenching, and fluorescence resonance energy transfer (FET), and can be used for quantitative and kinetics analyses. The dequenching approach is used to investigate saposin C's fusogenic activity. Octadecyl rhodamine B (R18) is selected as fluorescence probe and is entrapped in internal aqueous compartment of liposomal vesicles by co-sonication with BPS or PS(18:1,1).
Fluorescence increase (dequenching) of R18 occurs upon R18 concentration decreases. After non-labeled and labeled vesicles fuse, the R18 concentration is diluted, resulting in an increase in intensity of fluorescence. R18-labeled vesicles (lipid:R18=96:4, mol:mol) are mixed with the same lipid vesicles without fluorescence probe. Stopped-flow assays are conducted to quickly mix these vesicles with saposin C or Ca^2+ ion. Time-trace curves are generated for kinetic analysis. […] Fusion occurs extensively when reaction temperature is above the phase Transition temperature (Tc) of phospholipids. The Tc of synthetic PS(18:1) is about −11° C., while the Tc of PS(18:0) is very high (68° C.). Thus, the lipid bilayer phase of PS(18:1,1) is different to that of BPS(18:0 and 18:1) at 24° C.

B1: Saposin C: Recombinant saposin C, prosaposin-derived fusogenic lysosomal protein, expressed in E. coli (His-tag) (protein, listed as Homo sapiens)
chain: SDVYCEVCEFLVKEVTKLIDNNKTEKEILDAFDKMCSKLPKSLSEECQEVVDTYGSSILSILLEEVSPELVCSMLHLCSG
modifications: His-tag
As for B1, in series [1], the “fusogenic activity when bound to lipid membrane” value is recorded as “retains the fusogenic activity”. Moreover, the transport into neurons result in series [2] is “can be transported into the cultured mouse cortical and hippocampal neurons”. In series [3], the “activation of acid β-glucosidase” value is “excellent activation”. Moreover, in series [4] (BPS-liposomes), the “concentration promoting the size changes” value is reported as roughly 50 nM. Moreover, the “vesicle size after addition of saposin C” value in series [4] (mono-dispersed BPS-liposomes of ~200 nm before addition) is on record as 2-3 μm. In addition, the vesicle size enlargement result is recorded as “enlarges vesicle size” in series [4] (pH 4.7, over a 10 min period) and “not at pH 7.4” in series [4] (pH 7.4, over a 10 min period). In addition, the “time within which interaction with unsaturated PS containing membranes occurs” value in series [5] is listed as no more than 10 ms. Further, in series [6], the “kinetics of induced membrane fusion” value is recorded as “same kinetics as those with Ca^2+”.

B2: Saposin C(S37W): saposin C with a Trp at residue 37 (in the middle) (protein, UniProt P07602 311-390, looked up, variant S37W)
Saposin-C: B1 chain with S37W
modifications: Saposin-C
On to B2, for which the “effect of Trp substitutions on activation properties” value in series [3] was “no effect”.

B3: Saposin C + Phosphatidylserine (18:1, 1): saposin C complexed with acidic, unsaturated phosphatidylserine PS(18:1,1) liposomes (protein, UniProt P07602 311-390, looked up)
Saposin-C: B1 chain
modifications: Saposin-C complexed with phosphatidylserine liposomes
notes: saposin C complexed with acidic, unsaturated phosphatidylserine PS(18:1,1) liposomes
On to B3, for which the “stability in low concentrations of SDS solution” value in series [1] was “stable”.
